Patent US20150182631A1, “SYSTEM FOR […]-BASED ACTIVE INGREDIENTS” (Centre National De La Recherche Scientifique-CNRS, priority 2012, published 2015)

How the values were obtained:
[1] = Confinement of fluorescein in the lectin cavity; conditions: 4 days at ambient temperature, free fluorescein eliminated again
Protocol: The confinement experiments are carried out by incubating the wild-type protein (XCL) or the mutants (A38C) with the molecule to be tested. In order to carry out the control experiments with the mutant A38C, an oxidation step is carried out in the presence of GSSG in a phosphate buffer 50 mM, 100 mM NaCl, pH 7.2, OVN. The GSSG is then eliminated on a PD-10 sephadex G-25M column (GE Healthcare) pre-balanced in a phosphate buffer 50 mM, 100 mM NaCl, pH 8.5. The eluate is concentred at 1 ml on Vivaspin 15R 30,000 MWCO (Sartorius stedim). A batch of A38C is reduced to TCEP (under argon) with adding of NaOH for a final pH of 8.5. […] The quantity of fluorescein is measured by using an absorption coefficient of e511 nm=75,000 cm^−1 M^−1. The concentrations of XCL and of A38C after the confinement are calculated with e278 nm=[…]. The percentage of confinement is calculated by forming the ratio of the fluorescein/protein concentrations.
In the case with XCL, the inventors incubated the protein (15 μM) with fluorescein (10 mM) and then separated the protein from the non-confined molecules of fluorescein by two successive gel filtration columns. Beforehand, the inventors verified that if these two columns on the fluorescein solution are carried out at 10 mM, no residual free fluorescein is detected. […]

[2] = Balanced FRET, exchange of monomers; format: physicochemical; conditions: 1 h incubation, pH 8.5
Protocol: Fluorescence energy transfer was used to reveal the exchange of the XCL monomers. The exchange reaction is initiated by mixing the same volume of XCL-RITC (1 μM or only the buffer as a reference) and of XCL-FITC (1 μM) at 25° C. in 50 mM of phosphate buffer, 100 mM NaCl, pH 8.5. After one hour of incubation, the emission spectrum of the sample excited at 490 nm is recorded by spectrofluorimetry (Photon Technology International QM-4). The same experiments were carried out with A38C-RITC and A38C-FITC.
The oligomerization balance of the XCL protein was characterised by the measurement of the appearance of resonance energy transfer of the Förster type (FRET) between two populations of XCL labelled separately either with FITC (Fluorescein IsoThioCyanate) or with RITC (Rhodamine IsoThioCyanate).
In this same figure, is also shown the spectrum obtained by mixing the labelled protein, either by the donor or by the acceptor (dotted line curve). This spectrum was deconvoluted, which gives the spectra shown as a dotted line in FIG. 2A.
For the purposes of comparison, the same experiment was carried out with the variant A38C. This variant is covalently bonded by two additional disulphide bridges. A perfectly superimposable spectrum was obtained after mixing donor and acceptor labelled proteins and incubation of this mixture for 1 h at ambient temperature (dotted lines of FIG. 3B).

[3] = Thermal dissociation by tryptophan fluorescence; format: physicochemical
From the text: The thermal dissociation of XCL was followed by measuring the intrinsic fluorescence of the tryptophans. Each monomer of XCL contains 3 tryptophan residues: one in a hydrophobic cavity (Trp 77) and two located on the same interface between two monomers (Trp 27 and Trp 35). The inventors used these latter two Trp as probes for the quaternary structure of XCL, by taking advantage of their position in the structure of the tetramer. In order to increase the sensitivity of the measurement, the ratio of the fluorescence intensities 346 nm/330 nm was measured according to the temperature (FIG. 8).

B1: XCL: Xerocomus chrysenteron lectin, fungal sporocarp lectin forming a tetramer with central cavity, SEQ ID NO: 1 (protein)
chain: MSYSITLRVYQTNRDRGYFSIVEKTVWHFANGGTWSEANGAHTLTQGGSGTSGVLRFLSTKGERITVAVGVHNYKRWCDVVTGLKPDETALVINPQYYNNGGRDYVREKQLAEYSVTSAIGTKVEVVYTVAEGNNLEANVIFS
modifications: Xerocomus chrysenteron
confinement rate after incubation [1]: remained unchanged
FRET between FITC- and RITC-labelled protein after mixing (monomer redistribution) [2]: monomers have been redistributed
temperature before which no modification of the 346 nm/330 nm Trp fluorescence ratio was observed (lectin remained tetrameric) [3]: < 50 °C
temperature beyond which the protein precipitates out (visual analysis after heating) ([3]; precipitates in tetrameric form): > 45 °C
